This is an account of results in the Human Domainome abundance scans (Beltran et al. 2025).

B1: Proto-oncogene vav, residues 782 to 842; numbered along this chain, P15498 (parent)
chain: KYFGTAKARYDFCARDRSELSLKEGDIIKILNKKGQQGWWRGEIYGRVGWFPANYVEEDYS

± gives the uncertainty stated by the source.

Variants of B1 are the subject of this data set. The data set is described as follows: abundance fitness (aPCA) (normalised: wild type 0, dead -1); higher = more abundant; growth selection in yeast, the domain comes from the species named. The conditions noted are these: Homo sapiens.
For the variant KYFGTAKARYDFCARDRSELSLKEGDIIKILYKKGQQGWWRGEIYGRVGWFPANYVEEDYS [N32Y], the abundance fitness was -0.168 ± 0.17. Next, KYFGTAKARYDFCARDRSELSLKEGDIIKILEKKGQQGWWRGEIYGRVGWFPANYVEEDYS [N32E]: 0.123 ± 0.11.

In the case of KYFGTAKARYDFCARDRSELSLKEGDIIKILNKKGQQGWGRGEIYGRVGWFPANYVEEDYS [W40G], the abundance fitness was -0.707 ± 0.084. KYFGTAKARYDFCARDRSELSLKEGDIIKILNKKGQQGWLRGEIYGRVGWFPANYVEEDYS [W40L]: the abundance fitness was -0.306 ± 0.077. As to KYFGTAKARYDFCARDRSELSLKEGDIIKILNKKGQQGWWRGELYGRVGWFPANYVEEDYS [I44L], the abundance fitness came to 0.089 ± 0.075. For KYFGTAKARYDFCARDRSELSLKEGDIIKILNKKGQQGWWRGEWYGRVGWFPANYVEEDYS [I44W], the abundance fitness is -0.556 ± 0.12. Consider KYFGTAKARYDFCARERSELSLKEGDIIKILNKKGQQGWWRGEIYGRVGWFPANYVEEDYS [D16E], for which the abundance fitness was -0.225 ± 0.11. Regarding KYFGTAKARYDFCARWRSELSLKEGDIIKILNKKGQQGWWRGEIYGRVGWFPANYVEEDYS [D16W], the abundance fitness was -0.617 ± 0.081. As for KYIGTAKARYDFCARDRSELSLKEGDIIKILNKKGQQGWWRGEIYGRVGWFPANYVEEDYS [F3I], the abundance fitness is 0.058 ± 0.094. Turning to KYEGTAKARYDFCARDRSELSLKEGDIIKILNKKGQQGWWRGEIYGRVGWFPANYVEEDYS [F3E], the abundance fitness is -0.192 ± 0.17. As for KKFGTAKARYDFCARDRSELSLKEGDIIKILNKKGQQGWWRGEIYGRVGWFPANYVEEDYS [Y2K], the figure is -0.392 ± 0.23; as for KDFGTAKARYDFCARDRSELSLKEGDIIKILNKKGQQGWWRGEIYGRVGWFPANYVEEDYS [Y2D], 0.021 ± 0.14; as for KYFGTAKARYDFCARDRSELSLKEGDHIKILNKKGQQGWWRGEIYGRVGWFPANYVEEDYS [I27H], -0.14 ± 0.14. On to KYFGTAKARYDFCARDRSELSLKEGDMIKILNKKGQQGWWRGEIYGRVGWFPANYVEEDYS [I27M], for which the abundance fitness was -0.192 ± 0.12.

For KYFGTAKARYDFCARDRSELSLKEGDFIKILNKKGQQGWWRGEIYGRVGWFPANYVEEDYS [I27F], the abundance fitness is -0.44 ± 0.23. In the case of KYFGTAKARYDFCAVDRSELSLKEGDIIKILNKKGQQGWWRGEIYGRVGWFPANYVEEDYS [R15V], the abundance fitness is -0.471 ± 0.093. Regarding KYFGTAKARYDFCARDRSELSLKEGDIIKILNKKGQQGWWRGEIYGRVGWFPANYPEEDYS [V56P], the abundance fitness is -0.73 ± 0.18. KYFGTAKARYDFCARDRSELSLKEGDIIKILNKKGQQGWWRGEIYGRVGWFPANYKEEDYS [V56K]: the abundance fitness was -0.599 ± 0.18. KYFGTAKARYDFCARDRSELSLKEGDIIKILNKKGQQGWWRGEIYGRVGWFPANYLEEDYS [V56L]: the abundance fitness is -0.616 ± 0.08.

With KYFGTAKARYDFCARDRSELSLKEGDIIKILNKKGQQGWWRGEIYGRVGWFPANYEEEDYS [V56E], the abundance fitness was -0.562 ± 0.21. With KYFGTAKARYDFCARDRSGLSLKEGDIIKILNKKGQQGWWRGEIYGRVGWFPANYVEEDYS [E19G], the abundance fitness was -0.678 ± 0.14. Take KYFGTAKARYDFCARDRSELSLKEGDIIKILNKKGQQGWWRGEIYGRVGWFVANYVEEDYS [P52V]: the abundance fitness was -0.787 ± 0.15. In the case of KYFGTAKARYDFCARDRSELSLKEGDIIKILNKKGQQGWWRGEIYGRVGWFNANYVEEDYS [P52N], the abundance fitness is -0.761 ± 0.29. For KYFGTAKARYDFCARDRSELSLKEGDIIKILNKKGQQGWWRGEIYGRVGWFAANYVEEDYS [P52A], the abundance fitness was -0.909 ± 0.22. In the case of KYFGTAKARYDFCARDRSELSLKEGDIIKILNKKGQQGWWRGEIYGRVGWFRANYVEEDYS [P52R], the abundance fitness was -0.89 ± 0.099. On to KYFGTAKARYDFCARDRSELSLKEGDIIKILNKKGQQGWWRGEIYGRTGWFPANYVEEDYS [V48T], for which the abundance fitness turned out to be 0.071 ± 0.069. As for KYFGTAKARYDFCARDRSELSLKEGDIIKILNKKGQQGWWRGEIYGRVGWFPANYVELDYS [E58L], the figure is -0.225 ± 0.077; as for KYFGTAKARYDFCARDRSELSLKEGDIIKILNKKGQQGWWRGEIYGRVGWFPANYVEEDPS [Y60P], -0.183 ± 0.11; as for KYFGTAKARYDFCARDRSELSLKEGDIIKILNKKGQQGEWRGEIYGRVGWFPANYVEEDYS [W39E], -0.795 ± 0.27. For KYFETAKARYDFCARDRSELSLKEGDIIKILNKKGQQGWWRGEIYGRVGWFPANYVEEDYS [G4E], the abundance fitness was -0.298 ± 0.11. As for KYFGTAKARYDFCARDRSELSLKEGDIPKILNKKGQQGWWRGEIYGRVGWFPANYVEEDYS [I28P], the figure is -0.811 ± 0.38; as for KYFGTAKARYDFCARDRSELSLKEGDIQKILNKKGQQGWWRGEIYGRVGWFPANYVEEDYS [I28Q], -0.834 ± 0.37; as for KYFGTAKARYDFCARDRSELSLKEGDIDKILNKKGQQGWWRGEIYGRVGWFPANYVEEDYS [I28D], -0.944 ± 0.35. In the case of KYFGTAKARYDFCERDRSELSLKEGDIIKILNKKGQQGWWRGEIYGRVGWFPANYVEEDYS [A14E], the abundance fitness is -0.873 ± 0.26. For the variant KYFGTAKARYDFCHRDRSELSLKEGDIIKILNKKGQQGWWRGEIYGRVGWFPANYVEEDYS [A14H], the abundance fitness is -0.562 ± 0.23.

In the case of KYFGTAKARYDFCARDRSELSLKEGDIIKILNKKGQQGWWRGEIEGRVGWFPANYVEEDYS [Y45E], the abundance fitness stood at 0.103 ± 0.065.

Turning to KYFGTAKARYDFCARDRSELSLKEGDIIKILNKKGQQGWWRGEINGRVGWFPANYVEEDYS [Y45N], the abundance fitness is 0.081 ± 0.074.

Regarding KYFGTAKARYDFCARDRSELSLKEGDIIKILNKKGQQGWWRGEIYGRVGWFPANYVEEDYK [S61K], the abundance fitness is -0.196 ± 0.25.

Regarding KYFGTAKARYDFCARDRSELSLKEGDIIEILNKKGQQGWWRGEIYGRVGWFPANYVEEDYS [K29E], the abundance fitness was -0.493 ± 0.12. Next, KYFGTAKARYDFCARDRSELSLKEGDIIKILNKKGQQGWWRGEIYGRVGWFPAIYVEEDYS [N54I]: -0.376 ± 0.13; KYFGTAKARYDFCARDRSELSLKEGDIIKILNKKGQQGWWRIEIYGRVGWFPANYVEEDYS [G42I]: -0.832 ± 0.33. Next, KYFGTAKARYDFCARDRSELSLKEGDIIKILNKKGQQGWWRDEIYGRVGWFPANYVEEDYS [G42D]: -0.385 ± 0.21; KYFGMAKARYDFCARDRSELSLKEGDIIKILNKKGQQGWWRGEIYGRVGWFPANYVEEDYS [T5M]: -0.209 ± 0.096.
